Tests used:
RIG-I = molecular target: T1, RIG-I (Homo sapiens, UniProt O95786); assay: HEK293 IFN-beta promoter dual luciferase reporter, RNA stimulation; format: cell-based; settings: in vitro transcribed RNA, RIG-I overexpressing HEK293 cells; also activates endogenous RIG-I
T1 construct: HEK293 cells overexpressing either the full length RIG-I; host or cells: HEK293; HCT116 also for the qRT-PCR validation
T1 sequence (O95786 1-925): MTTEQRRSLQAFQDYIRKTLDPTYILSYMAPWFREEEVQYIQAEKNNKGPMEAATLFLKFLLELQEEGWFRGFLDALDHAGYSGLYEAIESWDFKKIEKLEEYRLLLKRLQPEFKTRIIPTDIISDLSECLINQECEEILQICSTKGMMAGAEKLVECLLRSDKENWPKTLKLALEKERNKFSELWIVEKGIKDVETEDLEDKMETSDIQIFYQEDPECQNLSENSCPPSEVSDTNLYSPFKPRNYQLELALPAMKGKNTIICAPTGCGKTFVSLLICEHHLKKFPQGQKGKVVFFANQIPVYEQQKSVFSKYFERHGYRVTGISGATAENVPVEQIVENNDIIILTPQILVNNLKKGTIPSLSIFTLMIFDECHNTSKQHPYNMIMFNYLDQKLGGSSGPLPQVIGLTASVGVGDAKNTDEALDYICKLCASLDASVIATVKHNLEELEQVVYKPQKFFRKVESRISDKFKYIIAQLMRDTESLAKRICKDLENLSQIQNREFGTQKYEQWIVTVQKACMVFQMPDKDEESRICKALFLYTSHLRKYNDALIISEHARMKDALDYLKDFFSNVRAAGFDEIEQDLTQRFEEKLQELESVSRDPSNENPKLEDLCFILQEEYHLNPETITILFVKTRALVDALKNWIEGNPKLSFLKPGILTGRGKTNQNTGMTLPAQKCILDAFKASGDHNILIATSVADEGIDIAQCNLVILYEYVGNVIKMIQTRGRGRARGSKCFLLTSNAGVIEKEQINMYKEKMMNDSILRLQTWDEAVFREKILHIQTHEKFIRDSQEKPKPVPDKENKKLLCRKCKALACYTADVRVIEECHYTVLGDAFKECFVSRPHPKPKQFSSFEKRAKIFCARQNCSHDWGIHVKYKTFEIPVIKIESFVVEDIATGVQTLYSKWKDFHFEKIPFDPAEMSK
Method: We also used reporter HEK293 cells as simple technique to evaluate ability of the given RNA to stimulate IFN-beta production in preliminary in vitro experiments. Technically this was performed as follows: RNA stimulation of HEK293 IFN-beta reporter cells HEK293 cells were seeded in a 24-well plate overnight at a density of 1.5×10^5 cells/ml (75,000 cells/well). Cells were co-transfected with 100 ng of plasmid construct (pCAGGS empty vector, pCAGGS-RIG-I full-length, pCAGGS-RIG-I helicase-RD mutant construct, and […] mutant construct), together with 80 ng of a firefly luciferase reporter gene driven by an IFN-beta promoter and 20 ng of a Renilla luciferase (pRL-null) transfection control. Transfections were performed using a cationic lipid agent, Fugene HD (Promega), at a 3:1 lipid:DNA ratio. Twenty-four hours post-transfection, cells were then stimulated with 1 μg RNA* mixed with Fugene HD at 2:1 lipid: RNA ratio for 24 hours. 20 μl cell lysates were collected in opaque 96-well plates and analyzed for IFN-beta-luciferase and Renilla activity using a BioTek Synergy HT plate reader. The transfection efficiency across different wells was normalized by dividing the IFN-beta luciferase activity with the Renilla activity. All values were further normalized to the unstimulated controls in cells transfected with the empty vector. All pCAGGS RIG-I constructs used in this study were generous gifts from Dr. Jenish Patel and Dr. Adolfo Garcia-Sastre of The Icahn School of Medicine at Mount Sinai in New York City. Synthetic RNA comprised of various stem loop regions of the human U1 snRNA were purchased from IDT Oligos as reported in (Bernard et al., 2012). U1 stem loop I sequence: [NT] ID NO:15); U1 stem loop II sequence: [NT] ID NO:16); U1 stem loop III sequence: [NT] ID NO:17); U1 stem loop IV sequence: [NT] ID NO:18); U1 stem loops I and II sequence: [NT] ID NO:19); U1 stem loops II and III sequence: [NT] ID NO:20). In vitro transcribed U1 RNA stimulation: Full length U1 (pT7U1) plasmid was generously provided by Dr. Joan Steitz (Yale School of Medicine, Yale University). […]

MC38 tumors = assay: MC38 tumor growth after IR (20Gy) plus intratumoral RNA with jetPEI; format: in vivo, mouse; settings: in combination with jetPEI lipid and IR (20Gy); injected 1, 7 and 14 days post-IR
Method: To further test ability of delivered RNAs to affect tumor growth we irradiated MC38 tumors at 20Gy and injected irradiated tumors with stem-loop regions of U1 or U2 at 1, 7 and 14 dayspost-IR. Tumors were grown for 17 days post IR and each 3rd day were measured as described in. As is shown in FIG. 40, injection of stem-loop structures of U1 in combination with jetPEI lipid and IR led to the 2-fold suppression of tumor growth as compared with IR only.
To further test ability of delivered synthetic RNAs (M5 and M8) to affect tumor growth we irradiated MC38 tumors at 20Gy and injected irradiated tumors 1, 7 and 14 dayspost-IR. Tumors were grown for 17 days post IR and each 3rd day were measured as described in. Injection of synthetic RNAs, M5 and M8, in combination with jetPEI lipid and IR led to the 2-fold suppression of tumor growth as compared with IR only.

B1: M5: rbRNA, RIG-I agonist, 81 nucleotides, SEQ ID NO:26 (nucleic acid)
chain: GACGAAGACCACAAAACCAGATAAAAAATTATTTTTTATCTGGTTTTGTGGTCTTCGTCTATAGTGAGTCGTATTAATTTC
modifications: listed as DNA, chemistry not given here
- IFN-beta stimulatory activity (IFN-beta luciferase reporter) (RIG-I): potent IFN-beta stimulatory activity
- suppression of tumor growth as compared with IR only (MC38 tumors): 2 fold
